Data: patent US11149086B2, “KV1.3 binding immunoglobulins” (Ablynx N.V., priority 2014, dated 2021)
Where two headings read alike, the source gives them in different places.

B1: A0194020A06: monovalent anti-Kv1.3 Nanobody, family 12 (protein)
VHH: EVQLVESGGGLVQAGGSLGLSCSASGLLFSRNSAGWYRQAPGKRREFVARIRMGGSINYADSVKGRFTVSRDNAKNMMYLQMNDLKPEDTAVYFCSGWREGFYEYWGQGTLVTVSS
modifications: Nanobody sequence
B2: A0194016B04: monovalent anti-Kv1.3 Nanobody, family 12 (protein)
VHH: EVQLVESGGGLVQAGGSLRLSCSASGLLFSVNSAGWYRQAPGKQRDFVARIRSGGSTNYADSVKGRFTISRDKATNTLYLQMNNLKPEDTAVYYCSSWRTEAYEYWGRGTLVTVSS
modifications: Nanobody sequence

Assays:
CCR7−CD45RA− T cells = type: cell-based, human; settings: for IC50: monovalent Nanobodies
Excerpt: The purified anti-Kv1.3 Nanobodies were characterized in a T Cell-activation assay. Human T Cells were first collected from Buffy Coat blood (from healthy volunteers, Bloodbank Gent) using RosetteSep (StemCell Technologies, #15061) followed by an enrichment on Ficoll-Paque™ PLUS (GE Healthcare #17-1440-03). CCR7−CD45RA− T cells were isolated through negative selection using biotinylated antibodies against CD45RA (BD Bioscience #624008) and CCR7 (BD Bioscence #624009) in addition to the Dynabeads Biotin Binder (Invitrogen #110.47). The purity of the population was afterwards checked with anti-CD3 (eBioscience #12-0037-73); anti-CD8 (BD Bioscience #345775); anti-CD4 (BD Bioscience #345771); anti-CD45RO (BD Bioscience #555493); anti-CD45RA (BD Bioscience #550855); anti-rat IgG (Jackson ImmunoResearch Laboratories #112-116-143); anti-CD19 (BD Bioscience #555413) and anti-Human CCR7 (R&D Systems #MAB197) labeled antibodies in flow cytometric assay.
Isolated CCR7^−CD45RA^− T Cells were then stimulated on anti-CD3 (eBioscience 16-0037-85; 540 ng/ml) coated 96-well plates at a concentration of 200 000 cells/well in absence or presence of dilution series of anti-Kv1.3 antibodies and ShK positive control (Smartox, #08SHK001). After 72 h, IFN-gamma production was measured with anti-human IFNγ antibody capture in ELISA (BD Bioscence #551221) combined with biotinylated anti-human IFNγ (BD Bioscience, #554550) and streptavidin-HRP (Dakocytomation #P0397) as detection (FIG. 11A-11B).
In addition, also CD25 expression was measured in flow cytometry, using an anti-CD25 antibody (BD Pharmingen, cat 557138) (FIG. 11C-11D). […]

human Kv1.3 [1] = target: T1, human Kv1.3 (Homo sapiens, UniProt P22001); test: IonFlux automated patch clamp, Kv1.3-expressing HEK293H cells; type: cell-based; settings: monovalent Nanobodies, concentration at which Kv1.3 current is 50%
T1 construct: cell lines stably expressing the full length human Kv1.3 channel
Excerpt: Periplasmic extracts were electrophysiologically screened for inhibitory effects on the voltage-gated potassium channel Kv1.3 on the IonFlux™ automated Patch Clamp using Kv1.3-expressing HEK293H cells. The complete procedure for evaluating the modulatory effect of periplasmic extracts on human Kv1.3 via electrophysiological recordings is given below.
The IonFlux™ (Molecular Devices) is an automated patch clamp system with integrated Well Plate Microfluidic™ Technology, temperature control and continuous perfusion and voltage clamp. The IonFlux™ 16 has sixteen parallel amplifiers and uses 96-well IonFlux plates conform to the Society for Biomolecular Sciences. This system allows both population and single cell patch clamp.
Extracellular solution contained (in mM): 132 NaCl, 5.4 KCl, 1.8 CaCl2, 0.8 MgCl2, 10 HEPES, 5 glucose (pH 7.2 with NaOH, and 285-290 mOsmolar). Intracellular solution contained (in mM): 40 KF, 100 KCl, 2 MgCl2, 10 HEPES, 5 EGTA (pH 7.45 with CsOH, and 300-315 mOsmolar). These solutions were freshly made, stocked for no longer than a month at 4° C. and filtered prior to use. […]
HEK293H cells stably expressing the human Kv1.3 channel were generated in house. […] Cells were counted (Casy T T, Roche), suspended at 1 million cells/ml, transferred to a new 50 ml conical CELLSTAR® tube and gently shaken at RT for approximately 20 min. […]

human Kv1.3 [2] = target: T1, human Kv1.3; test: IonWorks Quattro automated perforated patch clamp, Kv1.3-expressing CHL cells; type: cell-based; settings: monovalent Nanobodies, sustained current P1
Excerpt: Selected Nanobodies were electrophysiologically characterized on human Kv1.3 on the IonWorks automated perforated-Patch Clamp using Kv1.3-expressing Chinese Hamster Lung (CHL) cells. The procedure for evaluating the modulatory effect of the purified Nanobodies on human Kv1.3 via electrophysiological recordings is given below.
IonWorks Quattro (Molecular Devices) is a second-generation screening instrument that provides membrane voltage control and provides a direct electrophysiological assay for screening and characterization of compounds. It is an automated, high-throughput planar perforated patch clamp that uses a 384-well PatchPlate™ substrate.
Extracellular solution contained (in mM): 138 NaCl, 2.7 KCl, 0.9 CaCl2, 0.5 MgCl2, 8 Na2HPO4, and 1.5 KH2PO4 (pH 7.3 with NaOH, and 285-290 mOsmolar). The intracellular solution contained (in mM): 100 K-gluconate, 40 KCl, 3.2 EGTA, 5 HEPES and 3.2 MgCl2 (pH 7.3 with KOH, and 300-315 mOsmolar). These solutions were freshly made, stocked for no longer than a month at 4° C. and filtered prior to use. The selected Nanobodies were directly diluted in extracellular solution to obtain a 3 μM sample solution. […]
The basic principles of IonWorks automated patch clamp electrophysiology are described by Schroeder et al. (J Biomol Screen 8(1):50-64, 2003). […] In PPC mode, an ensemble average of the current from up to 64 cells per well was recorded. […]

T1 sequence (P22001 whole entry): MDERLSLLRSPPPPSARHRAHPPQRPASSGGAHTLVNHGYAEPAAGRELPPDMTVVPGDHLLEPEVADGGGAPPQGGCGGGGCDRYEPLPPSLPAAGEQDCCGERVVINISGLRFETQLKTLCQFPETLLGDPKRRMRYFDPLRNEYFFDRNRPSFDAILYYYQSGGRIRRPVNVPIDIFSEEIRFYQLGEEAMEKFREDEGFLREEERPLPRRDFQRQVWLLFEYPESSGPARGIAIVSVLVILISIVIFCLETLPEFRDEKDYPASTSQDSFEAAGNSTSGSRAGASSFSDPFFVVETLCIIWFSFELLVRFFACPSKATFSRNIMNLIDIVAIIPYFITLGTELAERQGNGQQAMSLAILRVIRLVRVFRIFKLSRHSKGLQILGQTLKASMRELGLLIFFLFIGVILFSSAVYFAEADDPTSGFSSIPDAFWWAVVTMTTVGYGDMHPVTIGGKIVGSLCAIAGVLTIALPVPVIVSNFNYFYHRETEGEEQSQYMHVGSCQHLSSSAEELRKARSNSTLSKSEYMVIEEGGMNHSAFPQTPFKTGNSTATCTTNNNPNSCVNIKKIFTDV

Molecule | inhibition of T-cell stimulation (IFNγ, CD25), in words (CCR7−CD45RA− T cells; anti-CD3 stimulation) | IC50 (CCR7−CD45RA− T cells; plate bound anti-CD3, 72 h, read-out: IC50 (in M) IFNγ read out) [nM] | IC50 (CCR7−CD45RA− T cells; plate bound anti-CD3, read-out: IC50 (in M) CD25 read out) [nM] | IC50 (human Kv1.3 [1]) [nM] | IC50 (human Kv1.3 [2]) [nM]
B1 | clearly inhibited | 30 | 36 | 13.4 | 
B2 |  |  |  | 84 | 34
